Source: publication PMC5438440

Target: human μ receptor (human) (UniProt P35372)
Chain of UniProt P35372 (P35372 whole entry): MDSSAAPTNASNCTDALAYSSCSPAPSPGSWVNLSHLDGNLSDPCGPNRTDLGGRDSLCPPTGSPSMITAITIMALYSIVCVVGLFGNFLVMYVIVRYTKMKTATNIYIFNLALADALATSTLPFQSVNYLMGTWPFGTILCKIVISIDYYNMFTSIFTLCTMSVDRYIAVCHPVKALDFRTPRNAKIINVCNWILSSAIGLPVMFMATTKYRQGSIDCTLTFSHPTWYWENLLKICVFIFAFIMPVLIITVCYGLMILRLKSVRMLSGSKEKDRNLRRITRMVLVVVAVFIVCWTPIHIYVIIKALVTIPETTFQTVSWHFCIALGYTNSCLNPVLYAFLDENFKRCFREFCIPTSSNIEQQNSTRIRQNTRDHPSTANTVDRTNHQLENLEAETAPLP

For DAMGO (peptide), the EC50 of the FRET signal increase (cAMP decrease) of the Epac sensor H187 in single HEK293 cells co-expressing μR, increasing concentrations of DAMGO, no forskolin pre-treatment was 0.091 nM.
